Our source for the IC50, Ki and Kd values is patent US20200207837A1 (published 2020).

Usually IC50 stands for the midpoint of a concentration-inhibition curve. Usually Ki stands for a measure of affinity in units of concentration, obtained from inhibition or displacement. A high value points to a looser hold on the target. One may read the Kd as the free concentration of one partner at which half of the binding sites on the other are occupied at equilibrium, for simple one-to-one binding.

In assay [1] the target is activated KLK1 (human KLK1, C-terminal His tag, pro-KLK1 activated with thermolysin) (UniProt P06870 25-262). The assay can be described thus: peptide substrate degradation inhibition.
The target of assay [2] is T1, activated KLK4 (human KLK4, C-terminal His tag, pro-KLK4 activated with thermolysin) (UniProt Q9Y5K2 31-254).
T1 chain: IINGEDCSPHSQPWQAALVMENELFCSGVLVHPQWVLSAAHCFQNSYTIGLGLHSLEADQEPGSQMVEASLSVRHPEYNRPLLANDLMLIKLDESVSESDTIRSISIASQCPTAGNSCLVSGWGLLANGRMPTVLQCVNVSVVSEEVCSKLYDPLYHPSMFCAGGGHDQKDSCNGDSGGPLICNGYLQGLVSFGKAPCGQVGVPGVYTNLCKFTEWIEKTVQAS
As to the kind of experiment: peptide substrate degradation inhibition.

For assay [3], the target named is T2, activated KLK8 (human KLK8, C-terminal His tag, pro-KLK8 activated with thermolysin) (UniProt O60259 33-260).
T2 chain: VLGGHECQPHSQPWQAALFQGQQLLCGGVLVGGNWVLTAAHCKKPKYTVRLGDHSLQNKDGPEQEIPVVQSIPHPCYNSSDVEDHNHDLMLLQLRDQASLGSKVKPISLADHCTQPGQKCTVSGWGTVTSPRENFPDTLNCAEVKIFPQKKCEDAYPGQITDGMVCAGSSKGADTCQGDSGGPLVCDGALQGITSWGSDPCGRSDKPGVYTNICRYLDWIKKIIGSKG
The assay can be described thus: peptide substrate degradation inhibition.

Assay [4] addresses T1, activated KLK4 (human KLK4, C-terminal …). As to the kind of experiment: peptide substrate degradation inhibition.
Assay [5] deals with T3, KLK4 biotinylated with EZ-Link NHS-PEG4-Biotin (UniProt Q9Y5K2 31-254, biotinylated with EZ-Link NHS-PEG4-Biotin (sites not given)).
T3 chain: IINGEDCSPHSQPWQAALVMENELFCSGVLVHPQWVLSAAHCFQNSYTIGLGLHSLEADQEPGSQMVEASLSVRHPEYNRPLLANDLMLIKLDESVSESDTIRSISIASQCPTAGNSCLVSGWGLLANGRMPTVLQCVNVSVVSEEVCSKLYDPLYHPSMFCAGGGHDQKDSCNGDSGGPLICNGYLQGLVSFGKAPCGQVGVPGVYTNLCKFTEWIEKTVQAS
The assay can be described thus: SPR (Biacore T200). A general note: In SPR one partner is held on a chip, and binding of the other changes the refractive index at the surface.

Sequence of activated KLK1 (human KLK1, C-terminal His tag, pro-KLK1 activated with thermolysin) (P06870 25-262): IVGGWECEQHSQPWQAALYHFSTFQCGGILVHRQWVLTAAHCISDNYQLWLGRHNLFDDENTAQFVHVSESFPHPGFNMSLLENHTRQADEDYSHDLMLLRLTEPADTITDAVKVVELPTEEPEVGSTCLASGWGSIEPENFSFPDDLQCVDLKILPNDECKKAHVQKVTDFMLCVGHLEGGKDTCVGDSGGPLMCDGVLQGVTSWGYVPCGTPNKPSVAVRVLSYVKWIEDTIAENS

B1: KLK1 inhibitory peptide K10066 (designed binder)
chain: GSGMKETAAAKFERQHMDSPDLGTDDDDKAMADIGSANSDPQFGLFSKYRTPNCSVALRDICWWTSEPVCGSDMSTYANECTLCMKIREGGHNIKIIRNGPCGASAAA
For B1, the IC50 in assay [1] was 12 nM; in assay [2] it was more than 1000 nM; in assay [3] it was more than 1000 nM.

B2: KLK1 inhibitory peptide K10071 (designed binder)
chain: GSGMKETAAAKFERQHMDSPDLGTDDDDKAMADIGSANSDPQFGLFSKYRTPNCDQNKYRDCHYYYKPVCGSDMSTYANECTLCMKIREGGHNIKIIRNGPCGASAAA
B2: the IC50 in assay [1] was 20 nM; in assay [2] it was more than 1000 nM; in assay [3], more than 1000 nM.

B3: KLK4/KLK8 inhibitory peptide K41026 (designed binder)
chain: GSGMKETAAAKFERQHMDSPDLGTDDDDKAMADIGSANSDPQFGLFSKYRTPNCQRYKMRGCNRMYDPVCGSDMSTYANECTLCMKIREGGHNIKIIRNGPCGASAAA
As for B3, in assay [4], the affinity, expressed as Ki, was 69.3 nM. Moreover, the IC50 is more than 1000 nM in assay [1], 293 nM in assay [2] and 9.1 nM in assay [3].

B4: KLK4 inhibitory peptide K40001 (designed binder)
chain: GSGMKETAAAKFERQHMDSPDLGTDDDDKAMADIGSANSDPQFGLFSKYRTPNCRKYEYGVCQRTYLPVCGSDMSTYANECTLCMKIREGGHNIKIIRNGPCGASAAA
Molecule B4 gave an inhibitory constant (Ki) in assay [4] of 0.16 nM. In addition, the IC50 is more than 1000 nM in assay [1], 1.8 nM in assay [2] and more than 1000 nM in assay [3]. In assay [5], this molecule returned a dissociation constant Kd of 0.00208 nM.

B5: KLK1 inhibitory peptide K10061 (designed binder)
chain: GSGMKETAAAKFERQHMDSPDLGTDDDDKAMADIGSANSDPQFGLFSKYRTPNCARNNIVDCFYYYKPVCGSDMSTYANECTLCMKIREGGHNIKIIRNGPCGASAAA
For the molecule B5, the values for the 50% inhibitory concentration (IC50) in assay [1], in assay [2] and in assay [3] were 13 nM, more than 1000 nM and more than 1000 nM, respectively.

B6: KLK4 inhibitory peptide K40005 (designed binder)
chain: GSGMKETAAAKFERQHMDSPDLGTDDDDKAMADIGSANSDPQFGLFSKYRTPNCSQQAMGACQRIYKPVCGSDMSTYANECTLCMKIREGGHNIKIIRNGPCGASAAA
In turn, B6 yielded a Ki in assay [4] of 0.21 nM. The IC50 is more than 1000 nM in assay [1], 2.2 nM in assay [2] and more than 1000 nM in assay [3].

B7: KLK4 inhibitory peptide K40004 (designed binder)
chain: GSGMKETAAAKFERQHMDSPDLGTDDDDKAMADIGSANSDPQFGLFSKYRTPNCEHAQLGVCQKLYQPVCGSDMSTYANECTLCMKIREGGHNIKIIRNGPCGASAAA
In the case of B7, the Ki in assay [4] came out at 0.38 nM. Also, the IC50 in assay [1] was more than 1000 nM; in assay [2], 2.1 nM; in assay [3], more than 1000 nM.

B8: KLK4/KLK8 inhibitory peptide K41046 (designed binder)
chain: GSGMKETAAAKFERQHMDSPDLGTDDDDKAMADIGSANSDPQFGLFSKYRTPNCGRYYRGWCFKSLEPVCGSDMSTYANECTLCMKIREGGHNIKIIRNGPCGASAAA
Consider B8, for which the affinity in assay [4] corresponds to a Ki of 0.31 nM. Further, the half-inhibitory concentration (IC50) in assay [1] was more than 1000 nM; in assay [2], 2 nM; in assay [3] it was 283 nM.

B9: KLK1 inhibitory peptide K10062 (designed binder)
chain: GSGMKETAAAKFERQHMDSPDLGTDDDDKAMADIGSANSDPQFGLFSKYRTPNCDIYQVDRCWWASQPVCGSDMSTYANECTLCMKIREGGHNIKIIRNGPCGASAAA
As to B9, the half-inhibitory concentration (IC50) was 12 nM in assay [1], more than 1000 nM in assay [2] and more than 1000 nM in assay [3].

B10: KLK4/KLK8 inhibitory peptide K41047 (designed binder)
chain: GSGMKETAAAKFERQHMDSPDLGTDDDDKAMADIGSANSDPQFGLFSKYRTPNCMRFHKDGCARIYDPVCGSDMSTYANECTLCMKIREGGHNIKIIRNGPCGASAAA
Take B10: the Ki in assay [4] is 1.38 nM. The concentration for half-maximal inhibition (IC50) is more than 1000 nM in assay [1], 7.4 nM in assay [2] and 31.5 nM in assay [3].

B11: KLK4/KLK8 inhibitory peptide K41043 (designed binder)
chain: GSGMKETAAAKFERQHMDSPDLGTDDDDKAMADIGSANSDPQFGLFSKYRTPNCRRYSIHGCNRMYAPVCGSDMSTYANECTLCMKIREGGHNIKIIRNGPCGASAAA
In assay [4], B11 registered a Ki of 0.21 nM. In addition, the IC50 in assay [1] is more than 1000 nM; in assay [2], 1.9 nM; in assay [3], 5.3 nM. In assay [5], this molecule had a Kd of 0.00891 nM.

B12: KLK4 inhibitory peptide K40003 (designed binder)
chain: GSGMKETAAAKFERQHMDSPDLGTDDDDKAMADIGSANSDPQFGLFSKYRTPNCELYVEDVCQRIFKPVCGSDMSTYANECTLCMKIREGGHNIKIIRNGPCGASAAA
Consider B12, for which, in assay [4], the inhibitory constant (Ki) is 0.2 nM. Besides, the IC50 was more than 1000 nM in assay [1], 1.8 nM in assay [2] and more than 1000 nM in assay [3]. The molecule also displayed a Kd in assay [5] of 0.0232 nM.

B13: KLK4/KLK8 inhibitory peptide K41025 (designed binder)
chain: GSGMKETAAAKFERQHMDSPDLGTDDDDKAMADIGSANSDPQFGLFSKYRTPNCSRYKSGGCTRIFDPVCGSDMSTYANECTLCMKIREGGHNIKIIRNGPCGASAAA
B13 returned an inhibition constant (Ki) in assay [4] of 16.3 nM. The IC50 in assay [1] was more than 1000 nM; in assay [2], 86 nM; in assay [3] it was 17 nM.

B14: KLK4/KLK8 inhibitory peptide K41021 (designed binder)
chain: GSGMKETAAAKFERQHMDSPDLGTDDDDKAMADIGSANSDPQFGLFSKYRTPNCRKHTLDGCARIYDPVCGSDMSTYANECTLCMKIREGGHNIKIIRNGPCGASAAA
B14 gave an inhibition constant Ki in assay [4] of 10.7 nM. For the same molecule, the concentration for half-maximal inhibition (IC50) was more than 1000 nM in assay [1], 53 nM in assay [2] and 7.5 nM in assay [3].

B15: KLK4/KLK8 inhibitory peptide K41024 (designed binder)
chain: GSGMKETAAAKFERQHMDSPDLGTDDDDKAMADIGSANSDPQFGLFSKYRTPNCTRYVVNGCSRVYDPVCGSDMSTYANECTLCMKIREGGHNIKIIRNGPCGASAAA
B15: the affinity in assay [4], expressed as Ki, was 74.6 nM. Besides, the concentration for half-maximal inhibition (IC50) is more than 1000 nM in assay [1], 293 nM in assay [2] and 8 nM in assay [3].

B16: KLK4/KLK8 inhibitory peptide K41042 (designed binder)
chain: GSGMKETAAAKFERQHMDSPDLGTDDDDKAMADIGSANSDPQFGLFSKYRTPNCSRYRREGCNRMYNPVCGSDMSTYANECTLCMKIREGGHNIKIIRNGPCGASAAA
On to B16, for which the Ki in assay [4] worked out at 2.8 nM. The 50% inhibitory concentration (IC50) in assay [1] was more than 1000 nM; in assay [2], 15.7 nM; in assay [3] it was 17.5 nM.

B17: KLK4/KLK8 inhibitory peptide K41045 (designed binder)
chain: GSGMKETAAAKFERQHMDSPDLGTDDDDKAMADIGSANSDPQFGLFSKYRTPNCRKQYWVGCNRMYAPVCGSDMSTYANECTLCMKIREGGHNIKIIRNGPCGASAAA
As for B17, in assay [4], affinity was put at a Ki of 0.32 nM. In addition, the IC50 in assay [1] was more than 1000 nM; in assay [2] it was 2.3 nM; in assay [3], 114 nM.

B18: KLK4/KLK8 inhibitory peptide K41041 (designed binder)
chain: GSGMKETAAAKFERQHMDSPDLGTDDDDKAMADIGSANSDPQFGLFSKYRTPNCQRYSQWGCTRQLDPVCGSDMSTYANECTLCMKIREGGHNIKIIRNGPCGASAAA
B18: affinity in assay [4] was put at a Ki of 0.4 nM. In addition, the 50% inhibitory concentration (IC50) in assay [1] is more than 1000 nM; in assay [2], 2.7 nM; in assay [3], 11.4 nM.
